T1: human CD19 (human, UniProt P15391 20-556)
T1 construct: CD19 as expressed on Raji, NALM-6 and SU-DHL-6 cells; also called CD19 antigen; B-cell surface antigen B4
T1 sequence: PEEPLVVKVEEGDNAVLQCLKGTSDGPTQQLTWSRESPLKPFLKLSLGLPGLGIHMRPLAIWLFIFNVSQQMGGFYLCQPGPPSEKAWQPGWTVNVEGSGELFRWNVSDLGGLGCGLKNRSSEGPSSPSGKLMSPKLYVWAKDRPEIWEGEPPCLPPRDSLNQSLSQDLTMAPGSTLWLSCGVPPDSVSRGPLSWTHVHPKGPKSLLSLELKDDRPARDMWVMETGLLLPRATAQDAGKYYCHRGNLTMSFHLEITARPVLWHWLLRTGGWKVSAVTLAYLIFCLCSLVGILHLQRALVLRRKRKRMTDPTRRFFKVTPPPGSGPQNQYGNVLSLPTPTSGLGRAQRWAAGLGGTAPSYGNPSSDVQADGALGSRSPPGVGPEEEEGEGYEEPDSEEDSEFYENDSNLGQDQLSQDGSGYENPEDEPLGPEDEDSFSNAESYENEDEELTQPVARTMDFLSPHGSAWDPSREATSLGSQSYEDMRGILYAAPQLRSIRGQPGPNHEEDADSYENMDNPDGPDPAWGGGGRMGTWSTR

B1: VH16-F67L/VL43 (antibody, human IgG1, name in Kabat numbering, V domains shown)
VH: QVQLVQSGGGVVQPGRSLRLSCAASGVSLPDYGVSWVRQAPGKGLEWVAVIWGSETTYYNSALKSRLTISRDNSKNTLYLQMNSLRAEDTAVYYCARHYYYGGSYAMDYWGQGTLVTVSS
VL: DIVMTQTPSSLSASVGDRVTITCRASQDISKYLNWYQQKPGKAPKLLIYHTSRLHSGVPSRFSGSGSGTDFTLTISSLQPEDFATYYCQQGNTLPYTFGPGTKVDIKR
notes: substitutions in Kabat numbering
B2: VH16 Y32F/R94K/VL43 V3Q/T7S/P44I/N92A (antibody, human IgG1, name in Kabat numbering, V domains shown)
VH: QVQLVQSGGGVVQPGRSLRLSCAASGVSLPDFGVSWVRQAPGKGLEWVAVIWGSETTYYNSALKSRFTISRDNSKNTLYLQMNSLRAEDTAVYYCAKHYYYGGSYAMDYWGQGTLVTVSS
VL: DIQMTQSPSSLSASVGDRVTITCRASQDISKYLNWYQQKPGKAIKLLIYHTSRLHSGVPSRFSGSGSGTDFTLTISSLQPEDFATYYCQQGATLPYTFGPGTKVDIKR
notes: Full-length human IgG1/kappa; substitutions in Kabat numbering
B3: VH16 R94K/VL43 V3Q/T7S/N92A (antibody, human IgG1)
heavy: not shown
VL: DIQMTQSPSSLSASVGDRVTITCRASQDISKYLNWYQQKPGKAPKLLIYHTSRLHSGVPSRFSGSGSGTDFTLTISSLQPEDFATYYCQQGATLPYTFGPGTKVDIKRTVAA
notes: as for B2
B4: VH16-R94K/VL43-F71Y (antibody, human IgG1, V domains shown)
VH: QVQLVQSGGGVVQPGRSLRLSCAASGVSLPDYGVSWVRQAPGKGLEWVAVIWGSETTYYNSALKSRFTISRDNSKNTLYLQMNSLRAEDTAVYYCAKHYYYGGSYAMDYWGQGTLVTVSS
VL: DIVMTQTPSSLSASVGDRVTITCRASQDISKYLNWYQQKPGKAPKLLIYHTSRLHSGVPSRFSGSGSGTDYTLTISSLQPEDFATYYCQQGNTLPYTFGPGTKVDIKR
notes: as for B2
B5: VH16-L78V/VL43-P44V (antibody, human IgG1, name in Kabat numbering, V domains shown)
VH: QVQLVQSGGGVVQPGRSLRLSCAASGVSLPDYGVSWVRQAPGKGLEWVAVIWGSETTYYNSALKSRFTISRDNSKNTVYLQMNSLRAEDTAVYYCARHYYYGGSYAMDYWGQGTLVTVSS
VL: DIVMTQTPSSLSASVGDRVTITCRASQDISKYLNWYQQKPGKAVKLLIYHTSRLHSGVPSRFSGSGSGTDFTLTISSLQPEDFATYYCQQGNTLPYTFGPGTKVDIKR
notes: as for B1
B6: VH16-F67L/VL43-P44V (antibody, human IgG1, name in Kabat numbering, V domains shown)
VH: QVQLVQSGGGVVQPGRSLRLSCAASGVSLPDYGVSWVRQAPGKGLEWVAVIWGSETTYYNSALKSRLTISRDNSKNTLYLQMNSLRAEDTAVYYCARHYYYGGSYAMDYWGQGTLVTVSS
VL: DIVMTQTPSSLSASVGDRVTITCRASQDISKYLNWYQQKPGKAVKLLIYHTSRLHSGVPSRFSGSGSGTDFTLTISSLQPEDFATYYCQQGNTLPYTFGPGTKVDIKR
notes: as for B1
B7: VH16-G42R/VL43-F71Y (antibody, human IgG1, name in Kabat numbering, V domains shown)
VH: QVQLVQSGGGVVQPGRSLRLSCAASGVSLPDYGVSWVRQAPRKGLEWVAVIWGSETTYYNSALKSRFTISRDNSKNTLYLQMNSLRAEDTAVYYCARHYYYGGSYAMDYWGQGTLVTVSS
VL: DIVMTQTPSSLSASVGDRVTITCRASQDISKYLNWYQQKPGKAPKLLIYHTSRLHSGVPSRFSGSGSGTDYTLTISSLQPEDFATYYCQQGNTLPYTFGPGTKVDIKR
notes: as for B1
B8: VH16-R94K/VL43-Y87F (antibody, human IgG1, V domains shown)
VH: QVQLVQSGGGVVQPGRSLRLSCAASGVSLPDYGVSWVRQAPGKGLEWVAVIWGSETTYYNSALKSRFTISRDNSKNTLYLQMNSLRAEDTAVYYCAKHYYYGGSYAMDYWGQGTLVTVSS
VL: DIVMTQTPSSLSASVGDRVTITCRASQDISKYLNWYQQKPGKAPKLLIYHTSRLHSGVPSRFSGSGSGTDFTLTISSLQPEDFATYFCQQGNTLPYTFGPGTKVDIKR
notes: as for B2
B9: VH16/VL43-Y87F (antibody, human IgG1, V domains shown)
VH: QVQLVQSGGGVVQPGRSLRLSCAASGVSLPDYGVSWVRQAPGKGLEWVAVIWGSETTYYNSALKSRFTISRDNSKNTLYLQMNSLRAEDTAVYYCARHYYYGGSYAMDYWGQGTLVTVSS
VL: DIVMTQTPSSLSASVGDRVTITCRASQDISKYLNWYQQKPGKAPKLLIYHTSRLHSGVPSRFSGSGSGTDFTLTISSLQPEDFATYFCQQGNTLPYTFGPGTKVDIKR
notes: as for B1
B10: VH16 Y32F/R94K/VL43 V3Q/T7S/Y32F/P44I/N92A (antibody, human IgG1, name in Kabat numbering, V domains shown)
VH: QVQLVQSGGGVVQPGRSLRLSCAASGVSLPDFGVSWVRQAPGKGLEWVAVIWGSETTYYNSALKSRFTISRDNSKNTLYLQMNSLRAEDTAVYYCAKHYYYGGSYAMDYWGQGTLVTVSS
VL: DIQMTQSPSSLSASVGDRVTITCRASQDISKFLNWYQQKPGKAIKLLIYHTSRLHSGVPSRFSGSGSGTDFTLTISSLQPEDFATYYCQQGATLPYTFGPGTKVDIKR
notes: as for B2
B11: VH16 R94K VL43 Y32F (antibody, human IgG1, V domains shown)
VH: QVQLVQSGGGVVQPGRSLRLSCAASGVSLPDYGVSWVRQAPGKGLEWVAVIWGSETTYYNSALKSRFTISRDNSKNTLYLQMNSLRAEDTAVYYCAKHYYYGGSYAMDYWGQGTLVTVSS
VL: DIVMTQTPSSLSASVGDRVTITCRASQDISKFLNWYQQKPGKAPKLLIYHTSRLHSGVPSRFSGSGSGTDFTLTISSLQPEDFATYYCQQGNTLPYTFGPGTKVDIKR
notes: as for B2
B12: VH16 Y32F/R94K/Y97F/VL43 V3Q/T7S/P44I/N92A (antibody, human IgG1, name in Kabat numbering, V domains shown)
VH: QVQLVQSGGGVVQPGRSLRLSCAASGVSLPDFGVSWVRQAPGKGLEWVAVIWGSETTYYNSALKSRFTISRDNSKNTLYLQMNSLRAEDTAVYYCAKHYFYGGSYAMDYWGQGTLVTVSS
VL: DIQMTQSPSSLSASVGDRVTITCRASQDISKYLNWYQQKPGKAIKLLIYHTSRLHSGVPSRFSGSGSGTDFTLTISSLQPEDFATYYCQQGATLPYTFGPGTKVDIKR
notes: as for B2
B13: VH16-G42R/VL43 (antibody, human IgG1, name in Kabat numbering, V domains shown)
VH: QVQLVQSGGGVVQPGRSLRLSCAASGVSLPDYGVSWVRQAPRKGLEWVAVIWGSETTYYNSALKSRFTISRDNSKNTLYLQMNSLRAEDTAVYYCARHYYYGGSYAMDYWGQGTLVTVSS
VL: DIVMTQTPSSLSASVGDRVTITCRASQDISKYLNWYQQKPGKAPKLLIYHTSRLHSGVPSRFSGSGSGTDFTLTISSLQPEDFATYYCQQGNTLPYTFGPGTKVDIKR
notes: as for B1
B14: VH16/VL43-P44V (antibody, human IgG1, V domains shown)
VH: QVQLVQSGGGVVQPGRSLRLSCAASGVSLPDYGVSWVRQAPGKGLEWVAVIWGSETTYYNSALKSRFTISRDNSKNTLYLQMNSLRAEDTAVYYCARHYYYGGSYAMDYWGQGTLVTVSS
VL: DIVMTQTPSSLSASVGDRVTITCRASQDISKYLNWYQQKPGKAVKLLIYHTSRLHSGVPSRFSGSGSGTDFTLTISSLQPEDFATYYCQQGNTLPYTFGPGTKVDIKR
notes: as for B1
B15: VH16 R94K/Y97F/VL43 V3Q/T7S/Y32F/P44I/N92A (antibody, human IgG1, name in Kabat numbering, V domains shown)
VH: QVQLVQSGGGVVQPGRSLRLSCAASGVSLPDYGVSWVRQAPGKGLEWVAVIWGSETTYYNSALKSRFTISRDNSKNTLYLQMNSLRAEDTAVYYCAKHYFYGGSYAMDYWGQGTLVTVSS
VL: DIQMTQSPSSLSASVGDRVTITCRASQDISKFLNWYQQKPGKAIKLLIYHTSRLHSGVPSRFSGSGSGTDFTLTISSLQPEDFATYYCQQGATLPYTFGPGTKVDIKR
notes: as for B2
B16: VH16 R94K/VL43 V3Q/T7S/Y32F/N92A (antibody, human IgG1, V domains shown)
VH: QVQLVQSGGGVVQPGRSLRLSCAASGVSLPDYGVSWVRQAPGKGLEWVAVIWGSETTYYNSALKSRFTISRDNSKNTLYLQMNSLRAEDTAVYYCAKHYYYGGSYAMDYWGQGTLVTVSS
VL: DIQMTQSPSSLSASVGDRVTITCRASQDISKFLNWYQQKPGKAPKLLIYHTSRLHSGVPSRFSGSGSGTDFTLTISSLQPEDFATYYCQQGATLPYTFGPGTKVDIKR
notes: as for B2
B17: VH16-R71K/VL43-F71Y (antibody, human IgG1, name in Kabat numbering, V domains shown)
VH: QVQLVQSGGGVVQPGRSLRLSCAASGVSLPDYGVSWVRQAPGKGLEWVAVIWGSETTYYNSALKSRFTISKDNSKNTLYLQMNSLRAEDTAVYYCARHYYYGGSYAMDYWGQGTLVTVSS
VL: DIVMTQTPSSLSASVGDRVTITCRASQDISKYLNWYQQKPGKAPKLLIYHTSRLHSGVPSRFSGSGSGTDYTLTISSLQPEDFATYYCQQGNTLPYTFGPGTKVDIKR
notes: as for B1
B18: VH16-G42R/VL43-Y87F (antibody, human IgG1, name in Kabat numbering, V domains shown)
VH: QVQLVQSGGGVVQPGRSLRLSCAASGVSLPDYGVSWVRQAPRKGLEWVAVIWGSETTYYNSALKSRFTISRDNSKNTLYLQMNSLRAEDTAVYYCARHYYYGGSYAMDYWGQGTLVTVSS
VL: DIVMTQTPSSLSASVGDRVTITCRASQDISKYLNWYQQKPGKAPKLLIYHTSRLHSGVPSRFSGSGSGTDFTLTISSLQPEDFATYFCQQGNTLPYTFGPGTKVDIKR
notes: as for B1

Assays:
[1] = target: T1, human CD19; assay: flow cytometry, NALM-6 cells, MPF vs chimeric FMC63
Protocol: (§1) Binding of the CD19 humanized monoclonal antibodies by flow cytometry to Raji tumor cells (human Burkitt lymphoma, DSMZ ACC319), NALM-6 (human B cell precursor leukemia, DSMZ ACC128) and SU-DHL-6 (human B cell lymphoma, DSMZ ACC572) (all cell lines from DSMZ Braunschweig, Deutschland) was assessed. Cells were incubated with serial dilutions of each humanized monoclonal antibody. An irrelevant human IgG1 was used as a negative control. The cells were washed and detected by a phycoerythrin-labeled (PE) anti-human secondary antibody (eBioscience, CA, USA) and analyzed by flow cytometry. […] From MFI versus antibody concentration curves, Mid-Point Fluorescence (MPF) value for each anti-CD19 humanized antibody was calculated using the software GraphPad Prism 5 (CA, USA).

[2] = target: T1, human CD19; assay: flow cytometry, Raji cells, MPF vs chimeric FMC63
Protocol: as §1

Row | Binder | relative MPF (% of chimeric FMC63) [1] [%] | relative MPF (% of chimeric FMC63) [2] [%] | binding result [2]
1 | B1 | 2.4 |  | 
2 | B2 |  | 133 | 
3 | B3 |  | 18.2 | 
4 | B4 | 23.5 | 41.8 | 
5 | B5 | 10.9 | 25.9 | 
6 | B6 | 2.37 |  | 
7 | B7 | 3.97 |  | 
8 | B8 |  | 31.8 | 
9 | B9 |  | 10 | 
10 | B10 |  |  | binds
11 | B11 |  | 39.5 | 
12 | B12 |  |  | binds
13 | B13 | 3.48 |  | 
14 | B14 | 6.05 | 9.72 | 
15 | B15 |  |  | binds
16 | B16 |  |  | binds
17 | B17 | 2.67 |  | 
18 | B18 | 3.65 | 8.43 | 

Source: patent publication US20100215651A1 (GLENMARK PHARMACEUTICALS S A, published 2010)
